From patent US20190135872A1

Tests used:
[1] = biological target: 16055 NFL-TD+CC2-D4K_I559P w/rEK (HIV-1 16055 (clade C)); assay: ELISA, His-captured trimer
[2] = biological target: BG505 NFL (I559P) parental (HIV-1 BG505 (clade A)); assay: ELISA, His-captured trimer
[3] = biological target: 16055 NFL-TD+CC2-D4K_I559P (HIV-1 16055 (clade C)); assay: ELISA, His-captured trimer
[4] = biological target: 16055 NFL-CC2 (HIV-1 16055 (clade C)); assay: ELISA, His-captured trimer
[5] = biological target: BG505 NFL-L555P (HIV-1 BG505 (clade A)); assay: ELISA, His-captured trimer
[6] = biological target: BG505 NFL-TD+CC2-D4K_I559P (HIV-1 BG505 (clade A)); assay: ELISA, His-captured trimer
[7] = biological target: BG505 NFL-TD+CC2-D4K_L555P (HIV-1 BG505 (clade A)); assay: ELISA, His-captured trimer
[8] = biological target: 16055 NFL-L555P (HIV-1 16055 (clade C)); assay: ELISA, His-captured trimer
[9] = biological target: 16055 NFL-Q563P (HIV-1 16055 (clade C)); assay: ELISA, His-captured trimer
[10] = biological target: BG505 NFL-CC2 (HIV-1 BG505 (clade A)); assay: ELISA, His-captured trimer
[11] = biological target: BG505 NFL-TD+CC2-D4K_L555P w/rEK (HIV-1 BG505 (clade A)); assay: ELISA, His-captured trimer
[12] = biological target: 16055 NFL-TD+CC2-D4K_L555P w/rEK (HIV-1 16055 (clade C)); assay: ELISA, His-captured trimer
[13] = biological target: BG505 NFL-TD+CC2-D4K_I559P w/rEK (HIV-1 BG505 (clade A)); assay: ELISA, His-captured trimer
[14] = biological target: JRFL NFL-CC2 (HIV-1 JRFL (clade B)); assay: ELISA, His-captured trimer
[15] = biological target: 16055 NFL-TD+CC2-D4K_L555P (HIV-1 16055 (clade C)); assay: ELISA, His-captured trimer
[16] = biological target: BG505 NFL (I559P) parental (HIV-1 BG505 (clade A)); assay: BLI, IgG captured, trimer as analyte
[17] = biological target: BG505 NFL-Q562P (HIV-1 BG505 (clade A)); assay: BLI, IgG captured, trimer as analyte
[18] = biological target: 16055 NFL-TD+CC2-D4K_I559P (HIV-1 16055 (clade C)); assay: BLI, IgG captured, trimer as analyte
[19] = biological target: 16055 NFL-CC2 (HIV-1 16055 (clade C)); assay: BLI, IgG captured, trimer as analyte
[20] = biological target: BG505 NFL-L555P (HIV-1 BG505 (clade A)); assay: BLI, IgG captured, trimer as analyte
[21] = biological target: BG505 NFL-TD+CC2-D4K_I559P (HIV-1 BG505 (clade A)); assay: BLI, IgG captured, trimer as analyte
[22] = biological target: BG505 NFL-TD+CC2-D4K_L555P (HIV-1 BG505 (clade A)); assay: BLI, IgG captured, trimer as analyte
[23] = biological target: 16055 NFL-L555P (HIV-1 16055 (clade C)); assay: BLI, IgG captured, trimer as analyte
[24] = biological target: 16055 NFL-Q563P (HIV-1 16055 (clade C)); assay: BLI, IgG captured, trimer as analyte
[25] = biological target: BG505 NFL-CC2 (HIV-1 BG505 (clade A)); assay: BLI, IgG captured, trimer as analyte
[26] = biological target: BG505 NFL-Q563P (HIV-1 BG505 (clade A)); assay: BLI, IgG captured, trimer as analyte
[27] = biological target: 16055 NFL-Q562P (HIV-1 16055 (clade C)); assay: BLI, IgG captured, trimer as analyte
[28] = biological target: 16055 NFL (I559P) parental (HIV-1 16055 (clade C)); assay: BLI, IgG captured, trimer as analyte
[29] = biological target: BG505 NFL-N554P (HIV-1 BG505 (clade A)); assay: BLI, IgG captured, trimer as analyte
[30] = biological target: 16055 NFL-TD+CC2-D4K_L555P (HIV-1 16055 (clade C)); assay: BLI, IgG captured, trimer as analyte
[31] = biological target: BG505 NFL-S553P (HIV-1 BG505 (clade A)); assay: BLI, IgG captured, trimer as analyte
[32] = biological target: 16055 NFL (I559P) parental (HIV-1 16055 (clade C)); assay: ELISA, His-captured trimer

PGT145 (antibody)
EC50 [1]: 0.019 mg/L | EC50 [2]: 0.016 mg/L | EC50 [3]: 0.015 mg/L | EC50 [4]: 0.013 mg/L | EC50 [5]: 0.018 mg/L | EC50 [6]: 0.013 mg/L | EC50 [7]: 0.014 mg/L | EC50 [8]: 0.014 mg/L | EC50 [9]: 0.013 mg/L | EC50 [10]: 0.011 mg/L | EC50 [11]: 0.015 mg/L | EC50 [12]: 0.015 mg/L | EC50 [13]: 0.016 mg/L | EC50 [14]: 0.012 mg/L | EC50 [15]: 0.014 mg/L | Kd [16]: 6.2 nM | Kd [17]: 6.2 nM | Kd [18]: 25 nM | koff [18]: 0.0056 s⁻¹ | kon [18]: 220000 M⁻¹ s⁻¹ | Kd [19]: 16 nM | koff [19]: 0.004 s⁻¹ | kon [19]: 240000 M⁻¹ s⁻¹ | Kd [20]: 2.9 nM | Kd [21]: 16 nM | koff [21]: 0.0027 s⁻¹ | kon [21]: 170000 M⁻¹ s⁻¹ | Kd [22]: 19 nM | koff [22]: 0.0031 s⁻¹ | kon [22]: 170000 M⁻¹ s⁻¹ | Kd [23]: 3.3 nM | koff [23]: 0.001 s⁻¹ | kon [23]: 310000 M⁻¹ s⁻¹ | Kd [24]: 1.6 nM | koff [24]: 0.0005 s⁻¹ | kon [24]: 320000 M⁻¹ s⁻¹ | Kd [25]: 21 nM | koff [25]: 0.0034 s⁻¹ | kon [25]: 160000 M⁻¹ s⁻¹ | Kd [26]: 3.6 nM | Kd [27]: 2.9 nM | koff [27]: 0.0009 s⁻¹ | kon [27]: 300000 M⁻¹ s⁻¹ | Kd [28]: 1.9 nM | Kd [29]: 4.3 nM | Kd [30]: 16 nM | koff [30]: 0.0035 s⁻¹ | kon [30]: 220000 M⁻¹ s⁻¹ | Kd [31]: 5 nM

PGT151 (antibody)
EC50 [1]: 0.041 mg/L | EC50 [2]: 0.062 mg/L | EC50 [5]: 0.058 mg/L | EC50 [6]: 0.065 mg/L | EC50 [7]: 0.073 mg/L | EC50 [8]: 0.048 mg/L | EC50 [9]: 0.047 mg/L | EC50 [10]: 0.059 mg/L | EC50 [11]: 0.085 mg/L | EC50 [12]: 0.056 mg/L | EC50 [13]: 0.091 mg/L | EC50 [14]: 0.139 mg/L | Kd [16]: 5.5 nM | Kd [17]: 1.9 nM | Kd [18]: 8.7 nM | koff [18]: 0.0069 s⁻¹ | kon [18]: 790000 M⁻¹ s⁻¹ | Kd [19]: 21 nM | koff [19]: 0.0053 s⁻¹ | kon [19]: 250000 M⁻¹ s⁻¹ | Kd [20]: 1.4 nM | Kd [21]: 2.3 nM | koff [21]: 0.0008 s⁻¹ | kon [21]: 340000 M⁻¹ s⁻¹ | Kd [22]: 3.7 nM | koff [22]: 0.0014 s⁻¹ | kon [22]: 370000 M⁻¹ s⁻¹ | Kd [23]: 5.7 nM | koff [23]: 0.0008 s⁻¹ | kon [23]: 150000 M⁻¹ s⁻¹ | Kd [24]: 8.9 nM | koff [24]: 0.0016 s⁻¹ | kon [24]: 180000 M⁻¹ s⁻¹ | Kd [25]: 1.9 nM | koff [25]: 0.0006 s⁻¹ | kon [25]: 290000 M⁻¹ s⁻¹ | Kd [26]: 1.7 nM | Kd [27]: 9.2 nM | koff [27]: 0.0016 s⁻¹ | kon [27]: 180000 M⁻¹ s⁻¹ | Kd [29]: 1.4 nM | Kd [30]: 13 nM | koff [30]: 0.0055 s⁻¹ | kon [30]: 45000 M⁻¹ s⁻¹ | Kd [31]: 3.3 nM

VRC01 (antibody)
EC50 [1]: 0.208 mg/L | EC50 [2]: 0.05 mg/L | EC50 [3]: 0.059 mg/L | EC50 [4]: 0.021 mg/L | EC50 [5]: 0.07 mg/L | EC50 [6]: 0.042 mg/L | EC50 [7]: 0.051 mg/L | EC50 [8]: 0.178 mg/L | EC50 [9]: 0.294 mg/L | EC50 [10]: 0.059 mg/L | EC50 [11]: 0.069 mg/L | EC50 [12]: 0.178 mg/L | EC50 [13]: 0.066 mg/L | EC50 [32]: 0.055 mg/L | EC50 [14]: 0.032 mg/L | EC50 [15]: 0.067 mg/L

VRC34 (antibody)
EC50 [1]: 0.034 mg/L | EC50 [2]: 0.464 mg/L | EC50 [4]: 0.434 mg/L | EC50 [5]: 0.017 mg/L | EC50 [6]: 0.072 mg/L | EC50 [7]: 2.43 mg/L | EC50 [10]: 0.457 mg/L | EC50 [11]: 0.035 mg/L | EC50 [12]: 0.032 mg/L | EC50 [13]: 0.037 mg/L | EC50 [32]: 0.692 mg/L | EC50 [14]: 1.01 mg/L | Kd [18]: 92 nM | koff [18]: 0.0038 s⁻¹ | kon [18]: 41000 M⁻¹ s⁻¹ | Kd [19]: 63 nM | koff [19]: 0.0027 s⁻¹ | kon [19]: 43000 M⁻¹ s⁻¹ | Kd [21]: 12 nM | koff [21]: 0.0005 s⁻¹ | kon [21]: 43000 M⁻¹ s⁻¹ | Kd [22]: 44 nM | koff [22]: 0.002 s⁻¹ | kon [22]: 44000 M⁻¹ s⁻¹ | Kd [25]: 1.3 nM | koff [25]: 4e-05 s⁻¹ | kon [25]: 27000 M⁻¹ s⁻¹ | Kd [30]: 75 nM | koff [30]: 0.0038 s⁻¹ | kon [30]: 50000 M⁻¹ s⁻¹
